Experimental data as given in publication PMC3548456.

Molecular target: CI-MPR domains 10-13, receptor construct 1288 (wild-type IGF-II binding domain) (human) (UniProt P11717)
Experiment: SPR

Chain of CI-MPR domains 10-13, receptor construct 1288 (wild-type IGF-II binding domain) (human) (P11717 1363-1988): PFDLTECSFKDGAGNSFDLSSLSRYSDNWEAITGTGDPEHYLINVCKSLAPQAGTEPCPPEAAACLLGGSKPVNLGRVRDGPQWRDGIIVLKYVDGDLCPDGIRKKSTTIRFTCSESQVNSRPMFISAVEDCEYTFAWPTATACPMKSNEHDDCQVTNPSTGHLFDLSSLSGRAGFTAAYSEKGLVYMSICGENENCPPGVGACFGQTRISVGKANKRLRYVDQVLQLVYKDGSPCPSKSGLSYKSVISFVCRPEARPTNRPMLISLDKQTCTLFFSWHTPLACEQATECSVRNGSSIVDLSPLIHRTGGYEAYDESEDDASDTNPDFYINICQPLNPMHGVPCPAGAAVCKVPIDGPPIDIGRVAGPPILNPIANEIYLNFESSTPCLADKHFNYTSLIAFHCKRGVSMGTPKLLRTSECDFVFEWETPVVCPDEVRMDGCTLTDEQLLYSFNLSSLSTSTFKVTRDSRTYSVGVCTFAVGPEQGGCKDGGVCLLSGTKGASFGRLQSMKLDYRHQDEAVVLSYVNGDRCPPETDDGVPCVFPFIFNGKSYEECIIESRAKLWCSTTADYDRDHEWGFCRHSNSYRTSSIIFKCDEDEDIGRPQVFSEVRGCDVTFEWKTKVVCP

Row | Kd | koff | Substance
1 | 21 nM | 0.0058 s⁻¹ | GILT-tagged GAA (BMN 701) (from UniProt P01344 32-91; P10253 70-952) (enzyme)
2 | 8.8 nM | 0.0034 s⁻¹ | full-length recombinant IGF-II (ligand)
